IntAct's records for PubMed 32439656

B1: ER membrane protein complex subunit 2 (Homo sapiens), Q15006 (parent)
chain: MAKVSELYDVTWEEMRDKMRKWREENSRNSEQIVEVGEELINEYASKLGDDIWIIYEQVMIAALDYGRDDLALFCLQELRRQFPGSHRVKRLTGMRFEAMERYDDAIQLYDRILQEDPTNTAARKRKIAIRKAQGKNVEAIRELNEYLEQFVGDQEAWHELAELYINEHDYAKAAFCLEELMMTNPHNHLYCQQYAEVKYTQGGLENLELSRKYFAQALKLNNRNMRALFGLYMSASHIASNPKASAKTKKDNMKYASWAASQINRAYQFAGRSKKETKYSLKAVEDMLETLQITQS
partner: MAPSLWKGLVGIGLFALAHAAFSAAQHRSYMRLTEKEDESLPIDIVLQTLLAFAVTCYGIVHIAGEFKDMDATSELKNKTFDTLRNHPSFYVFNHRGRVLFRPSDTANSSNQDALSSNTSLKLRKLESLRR

Variants of: B1
Settings: with emc5_human MMGT1, Q8N4V1

Variant	effect of a mutation on the interaction
Y200A	disrupting interaction strength
Y171A	with no effect
W259A	with no effect
R227A	disrupting interaction strength
E180A	with no effect
E160A	disrupting interaction strength
